Test results reported in article PMC3841102, “Activation of Smurf E3 Ligase Promoted by Smoothened Regulates Hedgehog Signaling through Targeting Patched Turnover” (PLoS Biology, 2013).
Positions count from the first letter of the chain named. Numbers in names are those of the source. Each block holds one binder with its values, some of them ahead of it.

Legend:
[1] = biological target: the molecule itself; experiment: native gel or EMSA; lysates of S2 cells transfected for 48 h; native polyacrylamide gel and Western blot
[2] = biological target: T1, His:Smurf protein (full length Drosophila Smurf) (Drosophila, UniProt Q9V853 1-1061); experiment: pull-down; GST fusion protein loaded glutathione beads incubated with 200 ng purified His:Smurf; 50 mM Tris-Cl pH 8.0, 200 mM NaCl, 1 mM EDTA, 1% NP-40, 2% BSA, 10 mM DTT, 1 mM PMSF; 4°C, 1 h; Western blot; conditions: both partners purified
T1 construct: Smurf E3 ligase, Drosophila, full length; Vector pET28a; also called Smurf in pET28a; source: E. coli, purified (Ni Sepharose)
T1 sequence (looked up): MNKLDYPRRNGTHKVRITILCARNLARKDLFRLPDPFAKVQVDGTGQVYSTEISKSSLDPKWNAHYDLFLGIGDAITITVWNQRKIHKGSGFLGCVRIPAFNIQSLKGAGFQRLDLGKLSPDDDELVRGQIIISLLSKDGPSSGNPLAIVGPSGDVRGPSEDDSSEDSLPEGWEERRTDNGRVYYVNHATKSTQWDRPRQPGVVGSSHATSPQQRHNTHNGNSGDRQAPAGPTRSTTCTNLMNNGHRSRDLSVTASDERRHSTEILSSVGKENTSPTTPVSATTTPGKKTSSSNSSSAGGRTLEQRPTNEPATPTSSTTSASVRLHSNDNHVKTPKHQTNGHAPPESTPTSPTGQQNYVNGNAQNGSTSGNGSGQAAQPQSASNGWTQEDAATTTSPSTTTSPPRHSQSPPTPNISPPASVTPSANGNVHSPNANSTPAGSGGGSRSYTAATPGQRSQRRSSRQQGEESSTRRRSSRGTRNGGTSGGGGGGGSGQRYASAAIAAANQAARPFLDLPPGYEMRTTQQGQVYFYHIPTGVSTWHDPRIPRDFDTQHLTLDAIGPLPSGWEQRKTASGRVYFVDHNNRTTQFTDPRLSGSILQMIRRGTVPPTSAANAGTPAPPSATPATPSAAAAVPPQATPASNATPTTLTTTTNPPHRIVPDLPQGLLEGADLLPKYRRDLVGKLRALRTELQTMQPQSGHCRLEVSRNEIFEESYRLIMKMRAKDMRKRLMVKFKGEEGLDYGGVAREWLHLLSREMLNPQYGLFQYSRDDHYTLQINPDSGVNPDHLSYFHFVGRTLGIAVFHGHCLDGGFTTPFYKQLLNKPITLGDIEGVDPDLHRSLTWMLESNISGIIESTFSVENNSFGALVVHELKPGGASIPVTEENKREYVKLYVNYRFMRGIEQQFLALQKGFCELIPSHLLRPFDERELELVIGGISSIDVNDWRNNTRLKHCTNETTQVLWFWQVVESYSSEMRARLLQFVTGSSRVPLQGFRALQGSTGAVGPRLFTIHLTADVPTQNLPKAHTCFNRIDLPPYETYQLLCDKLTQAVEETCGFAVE

B1: Ptc^CTD (C-terminal tail of Ptc) expressed in S2 cells (domain or fragment, Drosophila, UniProt P18502 1101-1286, looked up)
chain: ILLSMVGPEAELVPLEHPDRISTPSPLPVRSSKRSGKSYVVQGSRSSRGSCQKSHHHHHKDLNDPSLTTITEEPQSWKSSNSSIQMPNDWTYQPREQRPASYAAPPPAYHKAAAQQHHQHQGPPTTPPPPFPTAYPPELQSIVVQPEVTVETTHSDSNTTKVTATANIKVELAMPGRAVRSYNFTS
notes: Patched (Ptc), Drosophila, C-terminal tail; also called C-tail of Ptc; Ptc C-tail; source: S2 cells, transfected, in lysate
stoichiometry N [1]: 3

B2: Ptc^CTD with the K1261R mutation, in S2 cells (domain or fragment, Drosophila, UniProt P18502 1101-1286, looked up)
chain: B1 chain with K161R
notes: Patched (Ptc), Drosophila, C-terminal domain with K1261R; source: S2 cells, transfected, in lysate
stoichiometry N [1]: 3

binding result [2]: binds
B3: GST:Flag:Ptc^CTD fusion protein (domain or fragment, Drosophila, UniProt P18502 1101-1286, looked up)
chain: B1 chain
notes: Patched (Ptc), Drosophila, C-terminal domain, residues 1101-1286; Vector pGEX4T-1; also called Flag tagged Ptc^CTD (1101-1286 a.a) in pGEX4T-1; source: E. coli, purified (glutathione agarose beads, batch)
